{"source": "paper PMC7598594", "about": "(Toxins, 2020)", "binders": {"B1": {"name": "JSI-A4 (VHH)", "VHH": "SGGGLVQAGGSLRLSCAASGLTFSDTAVGWFRQAPGKEREFVAAAVIWSGVNTRYADSVRGRFTISRDSAKNTVYLQMNTLKPEDTAIYYCAAGRGAAAFPTDRSQYVYWGQGTQVTVSS", "notes": "source: E. coli, purified"}, "B2": {"name": "JSI-C7 (VHH)", "VHH": "SGGGLMQAGGSLRLACAASGRPFSTYFMGWFRQAPGKERDFVAVIDWSDGSTDYADSVKGRFTISRDNAKNTVYLQMNSLKPEDTAVYYCAARGSYLYTWPLEPDEYDYWGQGTQVTVSS", "notes": "source: E. coli, purified"}, "B3": {"name": "JSI-F2 (VHH)", "VHH": "SGGGLVQAGGSLRLSCAASGGTVSKYPMGWFRQAPGQEREFVAALSRDTDYTYYADSVKGRFTISRDNAKNTVYLQMNSLKREDTALYYCAAGSTDLKYSASVYADDYDYWGQGTQVTVSS", "notes": "source: E. coli, purified"}, "B4": {"name": "JLG-G12 (VHH)", "VHH": "QLQLVETGGGLVQAGGSLRLSCAASGRTFSSYAVGWFRQAPGKEREFVAAISWSGSYAYYADSVKGRFTISRDNAKNTVYLQMNSLKPEDTAVYYCNGDLEGYSNHETGDYWGQGTQVTVSS", "notes": "source: E. coli, purified"}, "B5": {"name": "JLE-G6 (VHH)", "VHH": "QLQLVETGGGLVKPGGSLRLSCVVSGFTFDDYRMAWVRQAPGKELEWVSSIDSWSINTYYEDSVKGRFTISTDNAKNTLYLQMSSLKPEDTAVYYCAAEDRLGVPTINAHPSKYDYNYWGQGTQVTVSS", "notes": "source: E. coli, purified"}, "B6": {"name": "JSI-H9 (VHH)", "VHH": "SGGGSVQAGGSLGLTCQGSGDAVRRGWFRQAPGKEREFVAAITSYGGTTFYADSVKGRFTVSRDNAKNTVYLQMISLKPEDTAVYYCAAASRPTGWPYEYDVWGQGTQVTVSS", "notes": "source: E. coli, purified"}, "B7": {"name": "JLF-H5 (VHH)", "VHH": "QVQLVESGGGSVQPGGSLRLSCVASGFTFTNYAMAWVRQVSGKGLEGVAAISSEGFIYIPDSVKGRFTISRDNAKNTVYLQMDNLQSEDTAIYHCAAVDWKRVAAMNSYNMDYWGKGTPVTVSA", "notes": "source: E. coli, purified"}, "B8": {"name": "JSI-F6 (VHH)", "VHH": "SGGGLVQAGGSLRVSCAASGRTFSTYAMGWFRQAPGKEREFVAAITKSGDYAYYADAVKGRFTISRDNAKNTVSLQMNSLKDEDTAVYYCAAHRSPLYSASVYDRDYDYWGQGTQVTVSS", "notes": "source: E. coli, purified"}, "B9": {"name": "JSI-G9 (VHH)", "VHH": "SGGGMVQAGGSLRLSCAASGRTASLDGMGWFRQAPGKEREFVGSINWRIGTTYYIDSVQGRFTISRDNARNTVYLQMISLKPEDTAVYYCAARLRRTDLISSPASYEYWGHGTQVTVSS", "notes": "source: E. coli, purified"}}, "experiment_in_all_cases": "ELISA", "settings_in_all_cases": "both partners purified", "key": {"[1]": {"target": "T1, light chain of BoNT/E1 (LC/E) (Clostridium botulinum, BoNT/E subtype …, UniProt Q00496)", "T1 construct": "source: E. coli BL21(DE3), purified (Ni-NTA, Streptactin, SEC)", "T1 sequence (Q00496 2-403)": "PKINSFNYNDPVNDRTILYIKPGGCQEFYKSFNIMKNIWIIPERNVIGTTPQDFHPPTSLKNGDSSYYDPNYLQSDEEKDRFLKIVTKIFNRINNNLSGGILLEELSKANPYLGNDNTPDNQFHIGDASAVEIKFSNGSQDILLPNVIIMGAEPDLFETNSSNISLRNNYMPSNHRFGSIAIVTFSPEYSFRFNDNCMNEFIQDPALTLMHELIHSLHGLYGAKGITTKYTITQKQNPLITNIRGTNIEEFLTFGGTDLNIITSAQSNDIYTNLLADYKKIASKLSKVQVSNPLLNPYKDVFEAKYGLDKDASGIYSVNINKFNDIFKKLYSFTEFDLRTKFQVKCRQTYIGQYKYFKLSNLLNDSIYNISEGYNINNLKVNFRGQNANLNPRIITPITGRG"}, "[2]": {"target": "T2, carboxyl terminal domain of the BoNT/E heavy chain (HCE) (Clostridium botulinum, BoNT/E (subtype …))"}, "[3]": {"target": "T1, light chain of BoNT/E1 (LC/E)", "remark": "listed apart in the source"}, "[4]": {"target": "T2, carboxyl terminal domain of the BoNT/E …", "remark": "listed apart in the source"}}, "data": [{"binder": "B1", "values": [{"measurement": "binding result", "setting": "[1]", "result": "no binding (tested: 125 nM)"}]}, {"binder": "B2", "values": [{"measurement": "binding result", "setting": "[1]", "result": "no binding (tested: 125 nM)"}]}, {"binder": "B3", "values": [{"measurement": "binding result", "setting": "[1]", "result": "no binding (tested: 125 nM)"}, {"measurement": "EC50", "setting": "[2]", "result": 2, "unit": "nM"}]}, {"binder": "B4", "values": [{"measurement": "EC50", "setting": "[3]", "result": 2, "unit": "nM"}]}, {"binder": "B5", "values": [{"measurement": "EC50", "setting": "[4]", "result": 3, "unit": "nM"}]}, {"binder": "B6", "values": [{"measurement": "binding result", "setting": "[1]", "result": "no binding (tested: 125 nM)"}]}, {"binder": "B7", "values": [{"measurement": "EC50", "setting": "[3]", "result": 10, "unit": "nM"}]}, {"binder": "B8", "values": [{"measurement": "binding result", "setting": "[1]", "result": "no binding (tested: 125 nM)"}, {"measurement": "EC50", "setting": "[2]", "result": 3, "unit": "nM"}]}, {"binder": "B9", "values": [{"measurement": "binding result", "setting": "[1]", "result": "no binding (tested: 125 nM)"}]}]}
